{"source": "patent US20210340516A1", "about": "“COMPOSITIONS CONTAINING ARGINASE 1 FOR THE TREATMENT OF NEUROVASCULAR AND RETINAL VASCULAR DISORDERS” (Augusta University Research Institute, Inc., priority 2020, published 2021)", "molecules": {"B1": {"name": "native enzyme: native, non-PEGylated arginase, compared with PEG-A1 for half-life (protein, UniProt P05089 1-322, looked up)", "Arginase-1": "MSAKSRTIGIIGAPFSKGQPRGGVEEGPTVLRKAGLLEKLKEQECDVKDYGDLPFADIPNDSPFQIVKNPRSVGKASEQLAGKVAEVKKNGRISLVLGGDHSLAIGSISGHARVHPDLGVIWVDAHTDINTPLTTTSGNLHGQPVSFLLKELKGKIPDVPGFSWVTPCISAKDIVYIGLRDVDPGEHYILKTLGIKYFSMTEVDRLGIGKVMEETLSYLLGRKKRPIHLSFDVDGLDPSFTPATGTPVVGGLTYREGLYITEEIYKTGLLSGLDIMEVNPSLGKTPEEVTRTVNTAVAITLACFGLAREGNHKPIDYLNPPK"}, "B2": {"name": "A1: arginase 1 given by intravitreal injection in an earlier study (Fouda 2018) (protein, UniProt P05089 1-322, looked up)", "Arginase-1": "B1 Arginase-1"}}, "key": {"[1]": {"tested_on": "primary rat retinal mixed neurons", "assay": "Primary retinal mixed neurons subjected to OGD/R, LDH release assay", "settings": "6 hours OGD and 18 hours reperfusion, ABH 100 μM at reoxygenation", "experimental": "Retinas from ten pups were collected and washed twice with ice-cold 1×PBS. They were digested with 0.5% trypsin for 3-4 min at 37° C., followed by trypsin inactivation with the culture medium, DMEM/F12 (Gibco, Grand Island, N.Y.) plus 10% FBS and 1% Penicillin-Streptomycin (P/S) solution (Invitrogen, Grand Island, N.Y.). The retina tissue was mechanically dissociated by pipetting several times until cells were dispersed. Cells were then filtered through a 40 μm nylon-mesh filter, collected by centrifugation at 1000 rpm for 10 min, re-suspended in culture medium, and plated in 6 or 12 well-cell culture plates (Corning, Corning, N.Y.) coated with Poly-D-lysine hydrobromide (PDL, Sigma) at a density of 0.5×10^6 cells/mL. The plates were maintained in a humidified CO2 incubator at 37° C. and 5% CO2. At days 1, 2, and 3 in vitro (DIV), half of the medium was aspirated and replaced with Neurobasal A medium containing 1×B-27 (GIBCO), 1× glutaMAX (GIBCO) and 1% P/S. Experiments were conducted at DIV 6."}, "[2]": {"settings": "native enzyme, comparison; cited from earlier work"}, "[3]": {"tested_on": "mouse model of acute retinal ischemia", "settings": "intravitreal injection (Fouda 2018); cited from earlier work"}}, "data": [{"molecule": "N[C@@H](CCCCB(O)O)C(=O)O", "note": "[ABH, 2(S)-amino-6-boronohexanoic acid, reference compound]", "values": [{"measurement": "cell death (LDH release)", "setting": "[1]", "result": "trend towards increased cell death"}]}, {"molecule": "B1", "values": [{"measurement": "half-life in vivo", "setting": "[2]", "result": "a few minutes"}]}, {"molecule": "B2", "values": [{"measurement": "neuroprotection in acute retinal ischemia", "setting": "[3]", "result": "showed neuroprotection"}]}]}
